Data taken from patent US20160122417A1.

Biological target: wild-type human EGFR from A431 cells (human) (UniProt P00533)
Assay: scFv-linked agarose beads incubated with A431 cell lysate; captured EGFR detected with anti-EGFR antibody cocktail, bead fluorescence normalized to the U87-EGFRvIII lysate signal

MR1 scFv, azide-functionalized and immobilized on DBCO-functionalized agarose beads
percent reduction in A431 lysate EGFR binding signal relative to U87-EGFRvIII lysate signal: 85%
